# Laboratory results from the supplement of paper PMC12667976.
# ± gives the standard error.
# B1: library; numbered along this chain (parent)
# chain: MATDAALRRLLRLHRTEIAVAVDSAFPLLHALADHDVVPEDKFQETLHLKEKEGCPQAFHALLSWLLTQDSTAILDFWRVLFKDYNLERYGRLQPILDSFPKDVDLSQPRKGRKPPAVPKALVPPPRLPTKRKASEEARAAAPAALTPRGTASPGSQLKAKPPKKPESSAEQQRLPLGNGIQTMSASVQRAVAMSSGDVPGARGAVEGILIQQVFESGGSKKCIQVGGEFYTPSKFEDSGSGKNKARSSSGPKPLVRAKGAQGAAPGGGEARLGQQGSVPAPLALPSDPQLHQKNEDECAVCRDGGELICCDGCPRAFHLACLSPPLREIPSGTWRCSSCLQATVQEVQPRAEEPRPQEPPVETPLPPGLRSAGEEVRGPPGEPLAGMDTTLVYKHLPAPPSAAPLPGLDSSALHPLLCVGPEGQQNLAPGARCGVCGDGTDVLRCTHCAAAFHWRCHFPAGTSRPGTGLRCRSCSGDVTPAPVEGVLAPSPARLAPGPAKDDTASHEPALHRDDLESLLSEHTFDGILQWAIQSMARPAAPFPS
# Variants of: B1
# Assay: AIRE transcriptional activation functional score (insulin promoter-GFP; nonsense median 0, synonymous median 1) (normalised score); higher = higher AIRE activity (more reporter activation)
# Conditions: with insulin promoter-GFP reporter in HEK293
# Procedure: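 Deep mutational scan of full-length human AIRE (codon-optimized cDNA, DT-POPCode NNN libraries over three regions) integrated at a Bxb1 landing pad in HEK293 cells carrying an insulin core promoter-GFP reporter at a Flp-In site. Cells were sorted for the top 10% GFP about 14 days after transfection. Variant frequency log-ratios (select vs non-select, TileSeq) were rescaled so that the nonsense median is 0 and the synonymous median is 1, then averaged over biological replicates.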
row,Variant,AIRE transcriptional activation functional score
1,I96S,-0.438 ± 0.35
2,I96R,0.0358 ± 0.43
3,A264T,1.22 ± 0.16
4,A264P,0.912 ± 0.16
5,A264S,1.18 ± 0.15
6,H448F,0.906 ± 0.038
7,L291D,0.351 ± 0.24
8,S278M,1.35 ± 0.14
9,L495G,1.05 ± 0.35
10,L495S,0.995 ± 0.25
11,M388R,0.983 ± 0.27
12,C475V,0.0724 ± 0.17
13,A265C,0.821 ± 0.14
14,A265Y,1.25 ± 0.06
15,G263R,0.812 ± 0.21
16,S185C,0.855 ± 0.08
17,P490N,0.697 ± 0.4
18,P326R,1.17 ± 0.13
19,P326D,0.439 ± 0.21
20,W335C,1.24 ± 0.1
21,W335M,1.39 ± 0.12
22,W335P,1.04 ± 0.19
23,G333C,1.14 ± 0.053
24,C434D,0.5 ± 0.11

row,Variant,AIRE transcriptional activation functional score
1,G486S,1.16 ± 0.21
2,A6T,0.643 ± 0.46
3,A6W,0.676 ± 0.14
4,V301M,0.84 ± 0.049
5,A73W,-0.767 ± 0.23
6,A73E,0.775 ± 0.12
7,Y90E,-0.843 ± 0.17
8,F236A,1.03 ± 0.3
9,F236P,0.266 ± 0.28
10,C340A,1.65 ± 0.13
11,C340D,1.7 ± 0.12
12,D76V,0.795 ± 0.29
13,A373T,1.63 ± 0.12
14,A532V,0.836 ± 0.14
15,L7M,0.507 ± 0.28
16,F453R,0.106 ± 0.18
17,F453M,0.268 ± 0.046
18,L87Y,-0.162 ± 0.25
19,D442P,0.0269 ± 0.18
20,C314D,0.933 ± 0.061
21,C314N,1.03 ± 0.054
22,C314Q,0.418 ± 0.13
23,D288N,0.786 ± 0.39
24,P56G,0.501 ± 0.21

row,Variant,AIRE transcriptional activation functional score
1,R336D,1.73 ± 0.24
2,K253F,0.823 ± 0.3
3,P233F,-0.0788 ± 0.3
4,R328V,1.1 ± 0.22
5,L49G,-0.0766 ± 0.54
6,L49M,0.566 ± 0.42
7,A505D,0.657 ± 0.051
8,G498Y,1.2 ± 0.14
9,G498E,1.1 ± 0.1
10,P252V,1.35 ± 0.25
11,V226W,1.21 ± 0.044
12,L529I,1.17 ± 0.3
13,D389N,1.22 ± 0.048
14,D389F,0.472 ± 0.1
15,R9G,0.856 ± 0.66
16,S196K,0.809 ± 0.15
17,S196F,0.117 ± 0.21
18,S476M,0.943 ± 0.047
19,S64A,-0.0317 ± 0.36
20,S64L,-0.114 ± 0.42
21,Q530Y,0.438 ± 0.036
22,P357T,1.1 ± 0.11
23,P492G,1.01 ± 0.11
24,D515S,0.474 ± 0.19

row,Variant,AIRE transcriptional activation functional score
1,L323N,0.866 ± 0.47
2,C55R,0.308 ± 0.33
3,R139M,1.04 ± 0.11
4,A450S,0.883 ± 0.2
5,E522S,0.0236 ± 0.093
6,A281Q,1.02 ± 0.46
7,S339Q,1.16 ± 0.21
8,P430F,1.69 ± 0.089
9,V214C,1.01 ± 0.054
10,R473A,0.794 ± 0.38
11,R473V,0.334 ± 0.23
12,E137S,0.539 ± 0.22
13,E137F,1.36 ± 0.29
14,Q290V,1.04 ± 0.32
15,L341I,1.21 ± 0.14
16,A25G,0.475 ± 0.28
17,E167C,1.33 ± 0.22
18,P95C,0.979 ± 0.17
19,P95D,0.444 ± 1.1
20,R132W,0.538 ± 0.051
21,V377C,1.32 ± 0.11
22,F82W,-0.557 ± 0.12
23,S187H,1.28 ± 0.17
24,E298F,0.727 ± 0.18

row,Variant,AIRE transcriptional activation functional score
1,G387V,1.5 ± 0.2
2,K222W,-0.0951 ± 0.11
3,L370F,0.823 ± 0.19
4,V188H,0.687 ± 0.26
5,P39T,1.25 ± 0.41
6,T468N,1.08 ± 0.15
7,A152S,0.715 ± 0.46
8,L10I,0.238 ± 0.76
9,P407T,1.18 ± 0.27
10,K501P,0.836 ± 0.36
11,P289A,0.95 ± 0.35
12,P126K,1.08 ± 0.12
13,P126N,0.042 ± 0.11
14,P126A,0.621 ± 0.17
15,L210C,0.0167 ± 0.071
16,L210G,0.615 ± 0.35
17,S506P,1.11 ± 0.67
18,L392V,1.36 ± 0.28
19,L392M,0.734 ± 0.13
20,S464F,0.807 ± 0.17
21,E376L,1.17 ± 0.17
22,A141F,1.77 ± 0.25
23,A141R,1.02 ± 0.51
24,T390P,0.842 ± 0.15

row,Variant,AIRE transcriptional activation functional score
1,S324D,1.13 ± 0.35
2,Q425K,0.902 ± 0.12
3,Q425E,0.587 ± 0.23
4,Q425F,1.13 ± 0.33
5,S535Q,-0.0138 ± 0.2
6,P368Q,0.776 ± 0.12
7,R445L,0.998 ± 0.18
8,E383S,1.01 ± 0.25
9,G424F,1.64 ± 0.083
10,G435R,1.03 ± 0.13
11,T441W,1.57 ± 0.035
12,G469N,1 ± 0.089
13,S332E,0.387 ± 0.16
14,V256E,0.8 ± 0.15
15,V348A,1.1 ± 0.16
16,T16N,0.597 ± 0.079
17,V118I,1.01 ± 0.14
18,V118K,0.143 ± 0.23
19,L417D,1.12 ± 0.14
20,P286V,1.26 ± 0.079
21,P286L,1.14 ± 0.32
22,E353Y,1.42 ± 0.078
23,R351P,1.02 ± 0.32
24,R351A,1.34 ± 0.32

row,Variant,AIRE transcriptional activation functional score
1,P539M,0.297 ± 0.044
2,L175K,0.766 ± 0.2
3,L175Q,1.1 ± 0.28
4,L175P,0.463 ± 0.91
5,P350V,1.01 ± 0.088
6,A452S,1.04 ± 0.19
7,A205V,0.34 ± 0.11
8,E237Q,1.03 ± 0.043
9,S250E,0.4 ± 0.58
10,G277T,0.758 ± 0.045
11,G277S,0.459 ± 0.24
12,A496R,0.864 ± 0.25
13,A496M,1.5 ± 0.068
14,A496Q,1.04 ± 0.065
15,A496F,1.07 ± 0.25
16,T46Y,0.503 ± 0.35
17,G204W,0.133 ± 0.075
18,L122S,1.44 ± 0.47
19,G228Q,-1.12 ± 0.25
20,P163G,0.723 ± 0.95
21,Q182C,1.4 ± 0.33
22,Q182H,1.91 ± 0.22
23,A399I,0.768 ± 0.06
